The DeepSol protein solubility set

Test: soluble on expression in E. coli; label from the status in PepcDB or PDB records

Sequence | soluble on expression in E. coli
MVAVKGLSEREVVADTVIWPIQFTVADNQLSSLFATVDQQTQLITQFLVEKGVDRAAISLSAPAVIDKKAQQYGEDRAEFRYLATQTLTVYSKQVDQVRKIISEIGQLGKQGVVFNQDPYNNRVEFSFTGLNAIKPDMIEEATKQAREVAQKFAKDSQSTLGKIKTASQGQFSITDRDNNTPYIKNVRVVTTVEYYLSDLEHHHHHH | not soluble
MVAYSPIIATYGNRAEQFLETDSDFAKYHAKLNKKLQHLRSRCHLVTKDTKKYSSKNKYGEINSEDYDNKTKLIGVLILLHAERDLALAETLKLRARQRGKLKKSEEKVLSTRLKKACKTADKLVNVTQNEQQWITRAQYLAFAKLVHSEYLINGKRFKRKDNAKISNNLALVFAALEHLKNLSLLAEEVVDNIVNKYQYSLKQYAGNLITTPEINNFIVERVQSDENKDDELVKLLLDNGFNMKKITTSTEDQKVTTNINWRSFNAKIIDAEVAQFLEQGLSIHPTQITQYTQRLSKLEKALDRHEFFIANHDDQDDIDEMVENSSENNQIILAYIKYNILLTSISRERDLFTHLWNQWLKLNTSLPSKLTKYKEMERIVKNLTKYLSDIMELPGVYSDDELLSQLDLCKLYFQLFLNTGCLSVLYQSKGRYMEALALYVDAYRRLENKLSEIESLDEILLPANLLSLNSVRSLQKRIENGGNSVITLAEYEKRNHGGSLGKYDLTVIEKLDSKKILPTDIQLKNLFPLKPKMLPIPSKPTLFDLAFNYITYDKQEPSASQVKDSVTETESISQTPISNEQTEGEPKKKRGFLGLFGR | not soluble
MVDFKMTKEGLVLLIKDYQNLEEVLNAISARITQMGGFFAKGDRISLMIENHNKHSQDIPRIVSHLRNLGLEVSQILVGSTVEGKENDLKVQSRTTVESTGKVIKRNIRSGQTVVHSGDVIVFGNVNKGAEILAGGSVVVFGKAQGNIRAGLNEGGQAVVAALDLQTSLIQIAGFITHSKGEENVPSIAHVKGNRIVIEPFDKVSFERSE | soluble
MVDSKKRPGKDLDRIDRNILNELQKDGRISNVELSKRVGLSPTPCLERVRRLERQGFIQGYTALLNPHYLDASLLVFVEITLNRGAPDVFEQFNAAVQKLEEIQECHLVSGDFDYLLKTRVPDMSAYRKLLGETLLRLPGVNDTRTYVVMEEVKQSNRLVIKTR | not soluble
MVEFSKESSTRVSVNSQRQISHVQKRELTKRKSVRFETQTVESTSEFVGKTNQEWTFVADCFNLDKETRSEREQELLSLCNFFDSNEKELELSDASDESDDSVPFELFAEQGMRIAWTQIVTSPSLSNLRLASILRFDTKKKIVSPFIEDEKSPQEFFLDDNEAVENAFKGVLPCTNSQKVSRSRRASKSEEENDFVTAKGSDFWSDVEF | not soluble
MVEINNQRKAFLDMLAWSEGTDNGRQKTRNHGYDVIVGGELFTDYSDHPRKLVTLNPKLKSTGAGRYQLLSRWWDAYRKQLGLKDFSPKSQDAVALQQIKERGALPMIDRGDIRQAIDRCSNIWASLPGAGYGQFEHKADSLIAKFKEAGGTVREIDV | soluble
MVEKEIDYLCSQYGLKPTNLSKFTLKLNFPDPDLKYGFSGEDNSLYLPLYHELNVSSSLPGEMFCMVYIQLILDPDKVNSEYLADFFNNPLGLKIRKGWEARGFVLRPETRNSEEVQESQQTSALNNPALLSGKSGFSGISYPVTGETSSENGDSIYSICQGSDGMTYVLPDSASPVPEILSFPDLDLESLMHSKLYLPDLQVQLEILKIKALTKELISQLNIFECRLSTYPKSMSHIRRKLELIREAVKLANDSDYILELIRRGESKRLEFKSTLRMNLMTGKPDWNIQHAVLKTIVAYLNTDGGILLVGVSNDGEILGIKNDGFPNEDRFLLHFKQLIKQHIGLNYSPMIEYTLVPVNGKEVLEIACKKSDEAVFLKTDKNDEEFYIRTGPSSERLTGSKLIEYVNRRYNGKSDAAALEHHHHHH | soluble
MVEKMNEEVMDSKELQVGDVVTGSVTKVEEKQVLVNVGYKTDGVIPISELANVHIEKASDVVELDQTLELKIIKLEEDDLVLSKRAVDAEKAWVELQEKFTSGHVFDVIVKDIVNGGLVVDLGVRGFIPASLVEVHYVEDFTDYKGKTLAVKIVELDREKNRVILSHKAVVELELDSKKKEAISSLKEGDVVEGTVQRLTDFGAFVNVGGVDGLVHISQISHERVEQPSEVLEQGQKVKVKVLSVDADTQRISLSIKAAQPGPWENVAGEIKAGDIREGVVKRLVTFGAFVEILPGVEGLVHVSQIANRHVKNPNEVLEMGQEVKVKVLEVHVAEKRISLSIKEALEENNVTEDYSQYEPNADSATFQLSDIIGEQLKKLKKLEHHHHHH | soluble
MVEKPVVIKFGGTSVRYAFEEALELVAKLHENMKIIVVVSALAGVTDCLLRLAKGDKSALLEIDEIHEELSQELNVQLEHLIHQLKKTINSKSSFPSEKAFIDEIASFGERFSAKLFSEGLKILGITARPVDSKDVLFVKGEFGNAEVEFKKSAQGVDVLYRMLRRGIVPVVTGYYGNLNGFRATFGRGGSDYSATSIASLVNAKAVLIMSDVEGIYTADPKLVPPARLIHYISYKEAKTAAKLGMKVLHPRAIDPVEGKIPVILGKTRDLKFGTLISHESQGIPIVTHKLLENHAEISVVSVKTNIPLPYEVYEEGDLYFKIKTSKDQFLEVLRDVHRRVVENENLHSSHDGELWTWVLEHHHHHH | not soluble
MVEMAATGYPVLILKEGTQRTYGREALRANILAARVLAEMLKSSLGPRGLDKMLVDAFGDITVTNDGATIVKEMEIQHPAAKLLVEVAKAQDAEVGDGTTSVVVLAGALLEKAEKLLDENLHPTIIIEGYTKAMEEALRLVDEAAVPVEVEDDSVLRRIAETTLASKFVGTGPERDKIISMVIDAIRTVAEKRPDGGYEVDLDYVKIEKKKGGSLLDSKLVRGIVLDKEVVHPAMPKRVENAKILVLDAPLEVQKPELTTKIRVTDIEKLESFLEEETRMLRDMVEKIAATGANVVITQKGIDEVAQHFLAKKGILAVRRVKRSDIEKVAKATGAKIVTSLRDLKPEYLGYAELVEERKVGEDKMVFIEGAKNPKSVTILLRGANDMLLDEAERNIKDALHGLRNILREPKIVGGGGAVEVELALKLKEFARTVGGKQQLAIEAYAEALETIPTVLAESAGMDALEALLKLRSLHSQGYKFAGVNVLEGKIEEDMTKINVYEPVLVKKQVIKSASEAAISILKIDDVIAAAPPKKKEKKGKTGEEEEEEGGGSKFEF | soluble
MVEQIKDKLGRPIRDLRLSVTDRCNFRCDYCMPKEVFGDDFVFLPKNELLTFDEMARIAKVYAELGVKKIRITGGEPLMRRDLDVLIAKLNQIDGIEDIGLTTNGLLLKKHGQKLYDAGLRRINVSLDAIDDTLFQSINNRNIKATTILEQIDYATSIGLNVKVNVVIQKGINDDQIIPMLEYFKDKHIEIRFIEFMDVGNDNGWDFSKVVTKDEMLTMIEQHFEIDPVEPKYFGEVAKYYRHKDNGVQFGLITSVSQSFCSTCTRARLSSDGKFYGCLFATVDGFNVKAFIRSGVTDEELKEQFKALWQIRDDRYSDERTAQTVANRQRKKINMNYIGG | soluble
MVERIEDLNLPNAVIGRLIKEALPESASVSKEARAAIARAASVFAIFVTSSSTALAHKQNHKTITAKDILQTLTELDFESFVPSLTQDLEVYRKVVKEKKESKASKKDSNTAENANASATATAEEAPE | soluble
MVESLKHTAAAAIAKLIHNGHFNSKSYAFDQESSNEVYAQLLRLDPQWSYNIDLKLKGLSFILTKVNFENVEMGPQTFGLLTQHNLKSLVLGNQDEIPSLEHYMSRLFRTSQIDHLDLSGRSQFSTAWLKTTGQQLPLLRTLNVSGVKLLNPDFFQFCKSFPNLYSLDISNCGVTILTGISRLKNLRHLSLRSLIYESWYDIRELFALKLLNVLDLSMHSTHHARRNMQRFLDCKQVLPELRFLECSGNLMDEDMLEELLITHSHLHQLAIVDCDVKAPKSSPIRILSCTTFDSSITALKYYLNLKRRNEVQICFQELRLHVKRLHERKMQYDVTECVTLSLQSLEKLPCSLIMNFDIVEERLFTSRLSFEADFLAEIVLHNFHRLSRVHTRLICDILLNNVNRQLIRDLRAETMWNAIIYLFNMGVFVDKQKLKGIASHCAASLHNGDPIIEEQAMRILTSCVTGKTLELVLSITESKHDTTPICLGFLRAALHKEDEQSSRRVAEKILAATHNNEEECKRYIKHGAMNMLISAIDRFDSEPMHIVILGIIRNLVMMSPYDKVQQIFTCVQFRTFQILLRNWTSSDRAYLMLSIFALRLNHQDKNFECVFRKCADELLRKHFPYLLATEITVDVDIYFDRGIVQNILRTSEEVGLVLWALLTIKIYAQKSLWNSRSIRDSNFFYLIENPHIASEVVNVASENVRFLFHW | not soluble
MVEVHACSPGCRHHLGGAGWGDAPLVRLGYNKEARAKKFPYLKALLERPLVFDGAMGTELQKRDLTPEDYGGEAYFGCPEVLNRTRPEVVREIHLAYLEAGAEVIETNTFGALRHVLAEYGLEEAAEELAFLGARIAREAADPHGAFVAGALGPGTKLVSLGQISWDALYRAYKEAARGLLKGGVDLILLETAQDILQVRCAVLAVREAMAEVGREVPLQVQVTFEATGTMLVGTDEQAALAALESLPVDVVGMNCATGPDLMDSKVRYFAEHSTRFVSCLPNAGLPRNEGGRVVYDLTPEELAKWHLKFVAEYGVNAVGGCCGTGPEHIRKVAEAVKGLAPKPRPESFPPQVASLYQAVSLKQEASLFLVGERLNATGSKRFREMLFARDLEGILALAREQVEEGAHALDLSVAWTGRDELEDLRWLLPHLATALTVPVMVDSTSPEAMELALKYLPGRVLLNSANLEDGLERFDRVASLAKAHGAALVVLAIDEKGMAKTREEKVRVALRMYERLTEHHGLRPEDLLFDLLTFPITQGDEESRPLAKETLLAMEELRERLPGVGFVLGVSNVSFGLKPRARRVLNSVFLDEARKRGLTAAIVDAGKILPISQIPEEAYALALDLIYDRRKEGFDPLLAFMAYFEAHKEDPGKREDAFLALPLLERLKRRVVEGRKQGLEADLEEALKAGHKPLDLINGPLLAGMKEVGDLFGAGKMQLPFVLQAAEVMKRAVAYLEPHMEKKGEGKGTLVLATVKGDVHDIGKNLVDIILSNNGYRVVNLGIKVPIEEILKAVEAHKPHAVGMSGLLVKSTLVMKENLEYMRDRGYTLPVILGGAALTRSYVEELRAIYPNVYYAEDAFEGLRLMEELTGHAPPELTRKAPARPKREAPKVAPRARPVGEAPAVPRPPFFGVRVEEGLDLATIAHYVNKLALYRGQWGYSRKGLSREAWQALVEREAEPVFQRLLKEAMAEGWLEPKVLYGFFPVAREGEELLVFSPETGEVLERFRFPRQKGGGLSLVDYFRPRFAAPLGDEADWMPKEAFRAGARDVLGVQLVTMGEAPSRKAQALFASGAYQDYLFVHGFSVEMTEALAEYWHKRMRQMWGIAHQDATEIQKLFQQGYQGARYSFGYPACPDLADQAKLDRLMGFHRVGVRLTENFQLEPEHATSALVVHHPEARYFSVD | soluble
MVFKMMYSEAILDYANSKKFRGKLDDATVIEEGKNISCGDEITLYLKVEDGVVKDAKFEGMGCVISQASASLMLERIIGERVEEIFSLIEEAEKMSRGENFDEGKLKNVTLMSDIKNYPARVKCFILAWKTLKEALKKISRP | soluble
MVFSGPASPGLTLAPLRRGGIDPCYRVDAAGAIWRTSLMPSGPVTARITRAATDAADCQAWGEGADEFIDRLPALLGVDDDASDFAPAEPTIAKARRQVPHLRLGRTGRMLEALIPAIIEQRVYGLDAWRAWRALVTKFGTPAPGPAPDGMRVVPSAEVWRRIPSWEFHRANVDPGRARTIVMCAQRADSLERLTHERAAVTLRSLPGVGEWTAAETMQRVFGDADALSAGDYHLATLVGQALTGEPVDDAGMVELLEPMRPHRHRAVRLLEASGMFVYRRRGARQAIPKLRTL | not soluble
